In article PMC6584995, “Disruption of an amino acid transporter LHT1 leads to growth inhibition and low yields in rice” (BMC Plant Biology, 2019):

Substrate: NC(=O)C[C@H](N)C(=O)O
Test: two-electrode voltage clamp in Xenopus oocytes, Asn-induced currents
Assay type: cell-based, Oryza sativa
Settings: pH 5.4 (Tris/MES), currents at -140 mV, holding potential -40 mV, transport

B1: OsLHT1 (Oryza sativa Japonica Group) (protein)
chain: MGTQVADNYPPAKDGRSAQEKAIDDWLPITSSRNAKWWYSAFHNVTAMVGAGVLSLPYAMSELGWGPGIAVLILSWIITLYTLWQMVEMHEMVPGKRFDRYHELGQHAFGEKLGLWIVVPQQLVVEVGVNIVYMVTGGKSLKKFHDVLCEGHGCKNIKLTYFIMIFASVHFVLSQLPNFNSISGVSLAAAVMSLSYSTIAWGASVDKGKVADVDYHLRATTSTGKVFGFFSALGDVAFAYAGHNVVLEIQATIPSTPEKPSKKPMWKGVVVAYIIVALCYFPVALVGYWAFGNHVDDNILITLSRPKWLIALANMMVVIHVIGSYQIYAMPVFDMIETVLVKKLRFPPGLTLRLIARTLYVAFTMFIAITFPFFGGLLGFFGGFAFAPTTYFLPCIMWLAIYKPRRFSLSWFTNWICIILGVMLMILSPIGGLRQIIIDAKTYKFYS
- Km: 583 ± 51 µM
